# From PMC2133107 (The Journal of Cell Biology, 1999)
# B1: HIV Rev protein (natural protein)
# chain: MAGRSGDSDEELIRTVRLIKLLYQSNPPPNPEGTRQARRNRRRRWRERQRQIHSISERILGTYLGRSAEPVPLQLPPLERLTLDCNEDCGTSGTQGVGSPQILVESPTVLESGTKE
# What was measured:
# [1] = molecular target: Ran wild type, Ran-[γ-32P]GTP (UniProt P62826)
# [2] = molecular target: Human CRM1 (recombinant, untagged) (human, UniProt O14980 1-1071)
# Sequence of Human CRM1 (recombinant, untagged) (human, UniProt O14980 1-1071) (O14980 whole entry): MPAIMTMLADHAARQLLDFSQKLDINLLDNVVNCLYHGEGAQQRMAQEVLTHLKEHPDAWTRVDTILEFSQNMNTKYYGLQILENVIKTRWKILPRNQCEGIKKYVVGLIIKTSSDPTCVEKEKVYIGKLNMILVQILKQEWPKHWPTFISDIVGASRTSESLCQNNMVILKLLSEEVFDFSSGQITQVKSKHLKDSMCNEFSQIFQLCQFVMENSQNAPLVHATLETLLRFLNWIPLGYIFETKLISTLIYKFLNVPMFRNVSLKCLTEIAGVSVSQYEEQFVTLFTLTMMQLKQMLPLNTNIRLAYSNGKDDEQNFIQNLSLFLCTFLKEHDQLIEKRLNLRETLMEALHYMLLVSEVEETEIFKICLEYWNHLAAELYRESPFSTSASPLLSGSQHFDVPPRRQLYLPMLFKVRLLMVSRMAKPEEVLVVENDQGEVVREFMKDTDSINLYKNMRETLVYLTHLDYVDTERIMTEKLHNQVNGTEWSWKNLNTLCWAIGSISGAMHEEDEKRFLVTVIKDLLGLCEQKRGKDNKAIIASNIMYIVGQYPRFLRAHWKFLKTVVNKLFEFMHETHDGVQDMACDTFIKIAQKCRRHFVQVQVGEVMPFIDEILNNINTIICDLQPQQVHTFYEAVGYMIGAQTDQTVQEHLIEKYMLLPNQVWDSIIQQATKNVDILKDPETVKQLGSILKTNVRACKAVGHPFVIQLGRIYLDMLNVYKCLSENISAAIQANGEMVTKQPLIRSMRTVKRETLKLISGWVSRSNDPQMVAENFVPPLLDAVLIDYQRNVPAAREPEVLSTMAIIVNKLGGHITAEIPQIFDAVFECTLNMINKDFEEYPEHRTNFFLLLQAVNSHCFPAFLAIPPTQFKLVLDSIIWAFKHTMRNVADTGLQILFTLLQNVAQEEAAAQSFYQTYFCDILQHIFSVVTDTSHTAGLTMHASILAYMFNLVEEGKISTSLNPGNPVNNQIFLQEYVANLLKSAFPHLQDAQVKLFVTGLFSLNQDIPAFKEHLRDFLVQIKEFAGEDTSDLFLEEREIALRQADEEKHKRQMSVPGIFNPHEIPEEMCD
Molecule,Kd [1],Kd [2]
"Human CRM1 (recombinant, untagged) (from UniProt O14980 1-1071) (natural protein; other documents disagree on this pair)",> 1 µM,
CPVPLQLPPLERLTLD [Rev-NES peptide 2],,~7 µM
B1,,~0.5 µM
CLPPLERLTL [Rev-NES peptide 1],,~50 µM
